Experiments:
[1] = target: T1, CD19 co-receptor on CD19+ human B-lineage ALL cells (primary leukemic cells; NALM-6 cell line) (human, UniProt P15391 20-556); experiment: deconvolution microscopy, biotin-labeled CD19-L plus Avidin-FITC
T1 construct: Endogenous CD19 on leukemia cells
T1 sequence: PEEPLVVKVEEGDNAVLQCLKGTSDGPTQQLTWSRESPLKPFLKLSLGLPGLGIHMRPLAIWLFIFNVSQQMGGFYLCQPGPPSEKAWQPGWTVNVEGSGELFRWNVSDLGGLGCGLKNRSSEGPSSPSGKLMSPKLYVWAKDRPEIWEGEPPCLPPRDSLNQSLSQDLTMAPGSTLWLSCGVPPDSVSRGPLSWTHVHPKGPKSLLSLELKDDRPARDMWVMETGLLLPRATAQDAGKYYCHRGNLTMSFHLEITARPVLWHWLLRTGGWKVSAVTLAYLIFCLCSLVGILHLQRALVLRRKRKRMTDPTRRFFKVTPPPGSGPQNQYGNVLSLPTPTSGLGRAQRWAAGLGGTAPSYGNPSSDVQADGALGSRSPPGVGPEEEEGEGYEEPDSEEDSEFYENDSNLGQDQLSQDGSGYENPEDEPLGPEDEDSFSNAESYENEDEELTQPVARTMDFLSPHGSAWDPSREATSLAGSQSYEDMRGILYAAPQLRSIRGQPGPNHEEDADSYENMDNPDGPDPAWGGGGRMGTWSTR
Description: Deconvolution microscopy was performed using the Deltavision deconvolution system from Applied Precision which consists of a Nikon TE200 inverted microscope outfitted for epifluorescence and fitted with an Applied Precision nanomover stage for precise control of the stage. Image collection was through a Photometrics CH350/L liquid cooled CCD camera. The system was controlled by SoftWoRx imaging software run on a Silicon Graphics O2 workstation.
(§1) Binding of biotin-labeled soluble CD19-L protein to the surface of CD19 co-receptor positive cells was examined using immunofluorescence staining combined with flow cytometry and deconvolution microscopy.

[2] = target: T2, human CD19 expressed on transfected DT40 chicken B-lymphoma cells (DT40hCD19+) (human, UniProt P15391 20-556); experiment: flow cytometry, biotin-labeled CD19-L plus Avidin-FITC
T2 construct: Human CD19 cDNA under a chicken actin promoter (pApuro) in DT40 cells; also called human CD19 co-receptor
T2 sequence: T1 sequence
Excerpt: as §1

B1: biotin-labeled soluble recombinant human CD19-L protein (ligand)
chain: MYMSMTEPSQDYVPASQSYPGPSLESEDFNIPPITPPSLQDHSLVHLNEVESGYHSLCHPMNHNGLLPFHPQNMDLPEITVSNMLGQDGTLLSNSISVMPDIRNPEGTQYSSHPQMAAMRPRGQPAQIRQQPGMMPHGQLTTINQSQLSAQLGLNMGGSNVPHNSPSPPGSKSATPSPSSSVHEDEGDDTSKINGGEKRPASDMGKKPKTPKKKKKKDPNEPQKPVSAYALFFRDTQAAIKGQNPNATFGEVSKIVASMWDGLGEEQKQVYKKKTEAAKKEYLKQLAAYRASLVSKSYSEPVDVKTSQPPQLINSKPSVFHGPSQAHSALYLSSHYHQQPGMNPHLTAMHPSLPRNIAPKPNNQMQVTVSIANMAVSPPPPLQISPPLHQHLNMQQHQPLTMQQPLGNQLPMQVQSALHSPTMQQGFTLQPDYQTIINPTSTAAQVVTQAMEYVRSGCRNPPPQPVDWNNDYCSSGGMQRDKALYLT
modifications: biotin-labeled (sites not given) ; Biotin-labelled; sites and chemistry not stated.
notes: Same recombinant protein as m1, labelled with biotin and detected with Avidin-FITC; also called biotin-labeled CD19-L; biotin-labeled soluble CD19-L protein; not shown: N-terminal pFastBacHT leader (6xHis tag, spacer region, rTEV cleavage site)
B1: binds [1]; binds [2].

From US20120141505A1 (published 2012)
